Measured values reported in patent US20060110800A1 (ZymoGenetics, published 2006).

Target: T1, 125I-IL-13 (UniProt P35225 35-146, limits assumed, 125I label (site not stated))
T1 construct: also called labeled IL-13; interleukin 13
Experiment: saturation binding analysis of 125I-IL-13 on BHK cells expressing Zcytor2
Method: The binding of ¹²⁵I-IL-13 to wild-type and Zcytor2-transfected BHK, TF-1, and BaF3 cells was determined. BHK cells were assayed in 6-well culture plates. TF-1 and BaF3 cells were assayed in microcentrifuge tubes. Cells were combined with 500 μl of either solution A (15 ml of binding buffer [RPMI containing 20 mM Tris pH7.4, 0.05% NaN₃, and 3 mg/ml BSA] plus 263 μl of ¹²⁵I-IL-13 [5.7×10⁷ cpm/ml]) or solution B (solution A containing 15 μl of cold 25 μg/ml IL-13). After a 2-hour incubation, cells were washed three times with 500 μl binding buffer and lysed in 500 μl of 400 mM NaOH. Lysates were transferred to tubes for gamma counting.

T1 sequence (P35225 35-146 limits assumed): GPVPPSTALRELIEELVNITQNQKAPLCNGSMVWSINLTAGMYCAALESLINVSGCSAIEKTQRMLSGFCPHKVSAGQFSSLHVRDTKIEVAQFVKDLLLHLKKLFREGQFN

- Kd: 0.59 nM
B1: human Zcytor2 receptor expressed on transfected BHK cells (receptor)
chain: SSDTEIKVNPPQDFEIVDPGYLGYLYLQWQPPLSLDHFKEYTVEYELKYRNIGSETWKTIITKNLHYKDGFDLNKGIEAKIHTLLPWQCTNGSEVQSSWAETTYWISPQGIPETKVQDMDCVYYNWQYLLCSWKPGIGVLLDTNYNLFYWYEGLDLALQCVDYIKADGQNIGCRFPYLEASDYKDFYICVNGSSENKPIRSSYFTFQLQNIVKPLPPVYLTFTRESSCEIKLKWGIPLGPIPARCFDYEIEIREDDTTLVTATVENETYTLKTTNETRQLCFVVRSKVNIYCSDDGIWSEWSDKQCWEGEDLSKKTLLRFWLPFGFILILVIFVTGLLLRKPNTYPKMIPEFFCDT
notes: also called BHK/Zcytor2 cells; Zcytor2-transfected BHK
